This note sets out measurements from the Immune Epitope Database (IEDB).

Some results are limits rather than exact numbers.

Assay [1] concerns the target HLA-A*11:01. Nature of the assay: IEDB peptide-MHC binding, purified MHC/competitive/fluorescence; ≥ and ≤ were set here for values at or beyond the usual limits of such assays.
For assay [2], the target named is HLA-B*07:02. Briefly: IEDB peptide-MHC binding, purified MHC/competitive/radioactivity; filed as Kd, often an IC50 or EC50 that approximates it; ≥ and ≤ were set here for values at or beyond the usual limits of such assays.
Assay [3] concerns the target HLA-B*51:01. The description is as above.
Assay [4] concerns the target HLA-A*03:01. Nature of the assay: IEDB peptide-MHC binding, purified MHC/competitive/fluorescence; filed as Kd, often an IC50 or EC50 that approximates it; ≥ and ≤ were set here for values at or beyond the usual limits of such assays.
The target of assay [5] is HLA-A*30:01. Briefly: IEDB peptide-MHC binding, purified MHC/competitive/radioactivity; filed as Kd, often an IC50 or EC50 that approximates it; ≥ and ≤ were set here for values at or beyond the usual limits of such assays. The settings on record: source organism: Dengue virus 1 Brazil/97-11/1997.
Assay [6] deals with HLA-B*15:01. The assay is described as above.
The target in assay [7] is HLA-A*32:01. The description is as above.
Assay [8] has as its target HLA-B*53:01. The assay is described as above.
Assay [9] deals with HLA-A*01:01. Described as above. The settings on record: source organism: Dengue virus 4 Philippines/H241/1956.
The target of assay [10] is HLA-A*30:02. The description is as above. The settings on record: source organism: Dengue virus 4 Philippines/H241/1956.
Assay [11] has as its target HLA-B*35:01. The description is as above.
Assay [12] deals with HLA-A*24:02. Briefly: IEDB peptide-MHC binding, purified MHC/competitive/fluorescence; ≥ and ≤ were set here for values at or beyond the usual limits of such assays. The note with it: source organism: Zaire ebolavirus.
Assay [13] addresses HLA-B*51:01. Briefly: IEDB peptide-MHC binding, purified MHC/competitive/fluorescence; filed as Kd, often an IC50 or EC50 that approximates it; ≥ and ≤ were set here for values at or beyond the usual limits of such assays. The note with it: source organism: West Nile virus.
In assay [14] the target is HLA-A*23:01. Nature of the assay: IEDB peptide-MHC binding, purified MHC/competitive/radioactivity; filed as Kd, often an IC50 or EC50 that approximates it; ≥ and ≤ were set here for values at or beyond the usual limits of such assays.
Assay [15] deals with HLA-A*02:06. Described as above. The note with it: source organism: Dengue virus 3 Martinique/1243/1999.
The target of assay [16] is HLA-B*18:01. The assay is described as above.
Assay [17] deals with HLA-B*40:02. The assay is described as above.
The target in assay [18] is HLA-B*40:01. Described as above.
Assay [19] deals with HLA-B*45:01. Described as above.
Assay [20] concerns the target HLA-B*44:02. Described as above.
The target of assay [21] is HLA-B*44:03. The description is as above.
The mark [22] stands for this setting: source organism: Zaire ebolavirus.
The mark [23] stands for this setting: source organism: Dengue virus 2 16681-PDK53.
Where [24] appears, read: source organism: Dengue virus 1 Brazil/97-11/1997.
[25] abbreviates: source organism: Vaccinia virus WR.
[26] abbreviates: source organism: Dengue virus 4 Philippines/H241/1956.
Where [27] appears, read: source organism: Dengue virus 3 China/80-2/1980.
The mark [28] stands for this setting: source organism: Dengue virus 4 Dominica/814669/1981.
Where [29] appears, read: source organism: Dengue virus 3 Martinique/1243/1999.
The mark [30] stands for this setting: source organism: Lymphocytic choriomeningitis virus (strain Armstrong).
Where [31] appears, read: source organism: SARS coronavirus Tor2.
[32] abbreviates: source organism: Mammarenavirus brazilense.

The term IC50 denotes the concentration at which inhibition is half-maximal. Read a low IC50 as inhibition by little substance. Broadly, the Kd is the concentration at which binding is half-saturated.

PNRSTKGGQ came in with an IC50 in assay [1] (setting [22]) of 46500 nM.

As for QPENLEYTIV, the Kd in assay [2] (setting [23]) is 4620 nM; in assay [3] (setting [23]) it was at least 69600 nM.

Consider ATYQRTRALVR, for which the Kd in assay [4] (source organism: Influenza A virus (A/swine/Italy/1509-6/97(H1N1))) came to 38.9 nM.

For KMRPMFAVG, the Kd is 14.7 nM in assay [5] and 34.6 nM in [6] (setting [24]).

As for SQHNYRPGYF, the Kd in [6] (setting [24]) worked out at 9.37 nM.

LLYTANFTF: the dissociation constant (Kd) in assay [7] (setting [25]) was determined as 6.72 nM; in assay [6] (setting [25]) it was 2.43 nM.

As to SQKTTWLPVL, the Kd in [6] (setting [24]) amounted to 91.5 nM.

For the sequence LLAISAVYF, in assay [6] (setting [25]), the dissociation constant (Kd) was 31.7 nM.

As for VPSIKSGNDI, the figures for the Kd in assay [2] (setting [24]), in assay [3] (setting [24]) and in assay [8] (setting [24]) were 1370 nM, at least 22000 nM and at least 47600 nM, respectively.

On to VLMMLVAPSY, for which the equilibrium dissociation constant (Kd) worked out at 1000 nM in [9], 26.6 nM in assay [10] and 10.1 nM in assay [6] (setting [26]).

As to YKVASAGISY, the dissociation constant (Kd) in assay [11] (setting [26]) came to 70.4 nM; in assay [6] (setting [26]) it was 2.96 nM.

For the sequence EYPPWLTEK, the IC50 in assay [12] was 9580 nM; in assay [1] (setting [22]) it was at least 123000 nM.

As for STLPETTVVRR, the Kd in assay [2] (source organism: Hepatitis B virus subtype adw2) is at least 35000 nM.

In [4] (source organism: Yersinia pestis Nepal516), RLLHRTTRK gave a dissociation constant Kd of 13.3 nM.

Take RPAVGGKTV: in assay [13], the Kd was at least 20000 nM.

In [4] (source organism: Brucella abortus str. 2308 A), FLWWGKWRK came in with a Kd of 3.1 nM.

For the sequence WLSLLVPFV, in [2] (source organism: Hepatitis B virus), the dissociation constant Kd is at least 35000 nM.

Regarding NISGQSPAR, the IC50 in assay [1] (setting [22]) was 47600 nM.

As for RPLSEKEENM, the Kd is 2030 nM in [2] (setting [26]) and at least 30100 nM in assay [11] (setting [26]).

On to RPGYHTQTAG, for which the dissociation constant (Kd) in [2] (source organism: Dengue virus 2 Jamaica/1409/1983) stood at 2.1 nM.

Consider RPINEKEENM, for which the results for the dissociation constant Kd in assay [2] (setting [27]) and in [11] (setting [27]) were 222 nM and 1830 nM, respectively.

In assay [1] (source organism: Vaccinia virus), YKTLCDMIK registered an IC50 of at least 230000 nM.

Turning to CLIPTVMAF, the equilibrium dissociation constant (Kd) in assay [14] (setting [28]) amounted to 81.9 nM; in [6] (setting [28]), 0.64 nM.

Take AQMWSLMYF: the figures for the dissociation constant Kd in assay [15] and in assay [6] (setting [29]) were 12.8 nM and 0.33 nM, respectively.

For the sequence RVYAHDAQH, the equilibrium dissociation constant (Kd) in [4] (source organism: Pixuna virus) was 30.5 nM.

In the case of FPYSIPATLL, the Kd was 28 nM in assay [2] (setting [29]), 325 nM in assay [3] (setting [29]), 9.97 nM in assay [8] (setting [29]) and 131 nM in [11] (setting [29]).

Take SEISVILQEL: the Kd was found to be 10300 nM in assay [16] (setting [30]); 544 nM in [17] (setting [30]); 868 nM in assay [18] (setting [30]); 4170 nM in [19] (setting [30]); 106 nM in assay [20] (setting [30]); 240 nM in [21] (setting [30]).

For RIKGMSYTM, the equilibrium dissociation constant (Kd) came out at 37.4 nM in [7] (setting [26]) and 32.2 nM in assay [6] (setting [26]).

In the case of KLSSEQLSK, the Kd in assay [4] (source organism: Trypanosoma cruzi) stood at 108 nM.

Regarding TENLVIEGPT, the Kd in assay [16] (setting [31]) was at least 56400 nM; in assay [17] (setting [31]), 721 nM; in assay [18] (setting [31]) it was at least 42900 nM; in assay [19] (setting [31]), 1830 nM; in [20] (setting [31]) it was 14000 nM; in assay [21] (setting [31]), at least 29100 nM.

Take PELKKPITW: the Kd in assay [16] (setting [32]) was at least 77500 nM; in assay [17] (setting [32]), at least 37100 nM; in [18] (setting [32]) it was at least 76100 nM; in [19] (setting [32]), at least 77700 nM; in [20] (setting [32]) it was at least 42800 nM; in assay [21] (setting [32]) it was 14100 nM.

As for CLIPTAMAF, the equilibrium dissociation constant (Kd) came to 451 nM in [14] (setting [26]) and 9.43 nM in assay [6] (setting [26]).
